Experimental findings from paper doi:10.1101/2021.04.06.438592, “Structural basis for how sMAC is packaged for clearance” (bioRxiv, 2021) are described below.

Values joined by “and” are separate entries in the source; they are usually repeats but may differ in a detail not shown here. Equal values may be shown once.

The chains are these.
B2: complement C9 (natural protein)
chain: not shown
modifications: N-linked glycan (NAG) on Asn394
notes: One to three copies stand in sMAC, in two conformations; also called C9_(1); C9_(2); source: bought: Complement Technologies (as part of purified sMAC)

Common to all, as to conditions: both partners purified
The test “complement C9” addresses B2. The test can be described thus: cross-linking; XL-MS of purified sMAC (0.5 mg/ml) with 1 mM DSS or 15 mM DMTMM, 30 min at RT, triplicates; LC-MS/MS, pLink.
Test [1] addresses T1, complement C8 (C8α/C8β/C8γ) (human, UniProt P07357 31-584; P07358 55-591; P07360 21-202).
T1 construct: complement component C8 alpha chain, human; complement component C8 beta chain, human; complement component C8 gamma chain, human; Kept as one molecule; source: bought: Complement Technologies (as part of purified sMAC); copies: 1 + 1 + 1
The test is described as above.

The target of test [2] is T1, complement C8 (C8α/C8β/C8γ). The test can be described thus: cryo-EM structure; purified sMAC (Complement Technologies) at 0.065 mg/ml in 120 mM NaCl, 10 mM Hepes pH7.4; 3D classes with 1, 2 or 3 C9; focused refinements after density subtraction.

T1 sequence (P07357 31-584, chain 1 of 3): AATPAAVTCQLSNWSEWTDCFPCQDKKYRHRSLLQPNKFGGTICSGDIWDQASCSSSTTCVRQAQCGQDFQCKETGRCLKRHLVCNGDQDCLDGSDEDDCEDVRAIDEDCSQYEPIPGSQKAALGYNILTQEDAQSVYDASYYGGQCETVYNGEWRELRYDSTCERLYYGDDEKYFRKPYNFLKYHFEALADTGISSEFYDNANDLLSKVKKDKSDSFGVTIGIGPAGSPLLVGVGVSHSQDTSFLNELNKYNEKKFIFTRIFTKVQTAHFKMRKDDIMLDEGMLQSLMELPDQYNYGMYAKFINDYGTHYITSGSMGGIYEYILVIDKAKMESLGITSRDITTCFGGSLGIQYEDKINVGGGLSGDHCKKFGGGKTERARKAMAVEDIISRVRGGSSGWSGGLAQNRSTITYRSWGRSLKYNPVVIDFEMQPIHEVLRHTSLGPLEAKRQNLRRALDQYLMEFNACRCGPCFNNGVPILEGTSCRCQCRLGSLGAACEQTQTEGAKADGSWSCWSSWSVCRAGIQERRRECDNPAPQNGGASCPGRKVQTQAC
T1 sequence (P07358 55-591, chain 2 of 3): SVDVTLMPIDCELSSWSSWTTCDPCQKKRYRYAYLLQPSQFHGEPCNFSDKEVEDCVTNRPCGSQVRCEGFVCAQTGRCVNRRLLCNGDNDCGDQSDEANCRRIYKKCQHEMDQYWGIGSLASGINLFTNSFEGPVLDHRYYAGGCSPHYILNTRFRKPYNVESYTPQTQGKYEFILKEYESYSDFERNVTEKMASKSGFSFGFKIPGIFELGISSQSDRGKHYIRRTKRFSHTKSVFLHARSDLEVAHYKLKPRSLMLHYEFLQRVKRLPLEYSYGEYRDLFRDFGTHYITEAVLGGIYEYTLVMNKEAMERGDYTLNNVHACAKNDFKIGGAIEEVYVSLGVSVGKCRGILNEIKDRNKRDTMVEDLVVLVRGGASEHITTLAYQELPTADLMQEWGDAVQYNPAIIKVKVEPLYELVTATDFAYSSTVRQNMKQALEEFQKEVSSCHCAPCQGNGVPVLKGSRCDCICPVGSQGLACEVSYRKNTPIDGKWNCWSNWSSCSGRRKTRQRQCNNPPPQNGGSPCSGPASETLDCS
T1 sequence (P07360 21-202, chain 3 of 3): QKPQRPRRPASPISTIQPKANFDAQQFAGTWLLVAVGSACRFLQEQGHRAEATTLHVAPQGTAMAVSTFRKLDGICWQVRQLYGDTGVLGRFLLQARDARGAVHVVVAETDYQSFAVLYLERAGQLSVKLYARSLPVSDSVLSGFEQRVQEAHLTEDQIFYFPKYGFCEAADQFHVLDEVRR
complement C9, sequence (P02748 22-559): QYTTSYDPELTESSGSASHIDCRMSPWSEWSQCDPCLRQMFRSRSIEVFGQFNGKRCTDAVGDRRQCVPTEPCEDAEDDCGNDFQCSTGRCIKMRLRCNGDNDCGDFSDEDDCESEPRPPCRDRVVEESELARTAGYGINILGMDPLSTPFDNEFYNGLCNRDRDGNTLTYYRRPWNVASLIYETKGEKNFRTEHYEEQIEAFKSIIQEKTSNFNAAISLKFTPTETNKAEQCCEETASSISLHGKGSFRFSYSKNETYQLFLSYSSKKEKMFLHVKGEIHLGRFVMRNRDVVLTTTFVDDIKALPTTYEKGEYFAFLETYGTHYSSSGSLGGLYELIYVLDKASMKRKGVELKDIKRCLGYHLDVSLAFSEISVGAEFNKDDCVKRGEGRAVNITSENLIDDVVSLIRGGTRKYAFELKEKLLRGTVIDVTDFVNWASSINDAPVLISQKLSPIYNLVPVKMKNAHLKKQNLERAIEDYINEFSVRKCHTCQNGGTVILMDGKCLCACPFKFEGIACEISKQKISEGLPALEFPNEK

B1: clusterin (natural protein, human)
chain 1: DQTVSDNELQEMSNQGSKYVNKEIQNAVNGVKQIKTLIEKTNEERKTLLSNLEEAKKKKEDALNETRESETKLKELPGVCNETMMALWEECKPCLKQTCMKFYARVCRSGSGLVGRQLEEFLNQSSPFYFWMNGDRIDSLLENDRQQTHMLDVMQDHFSRASSIIDELFQDRFFTREPQDTYHYLPFSLPHRRPHFFFPKSRIVR
chain 2: SLMPFSPYEPLNFHAMFQPFLEMIHEAQQAMDIHFHSPAFQHPPTEFIREGDDDRTVCREIRHNSTGCLRMKDQCDKCREILSVDCSTNNPSQAKLRRELDESLQVAERLTRKYNELLKSYQWKMLNTSSLLEQLNEQFNWVSRLANLTQGEDQYYLRVTTVASHTSDSDVPSGVTEVVVKLFDSDPITVTVPVEVSRKNPKFMETVAEKALQEYRKKHREE
modifications: highly glycosylated | highly glycosylated
notes: Secreted clusterin, about 80 kDa; multiple copies in sMAC; Not modelled in the deposited structures; the clusterin core model (residues 40-124 and 256-427) is a prediction; also called apolipoprotein J; source: bought: Complement Technologies (as part of purified sMAC)
For B1, the binding result (with complement C9; in test [1]) was “binds” in each case. One may read the stoichiometry N as a count of units in the complex or per binding partner. Regarding B2, the “stoichiometry N” value in test [2] is 1 copies and 3 copies.
